Experimental findings from patent CN115521375A (INST PASTEUR SHANGHAI CAS, dated 2022) are described below.

Common to all, as to assay: cell-based or functional assay
The target in assay [1] is SARS-CoV-2 B.1.1.7假病毒的S蛋白 (SARS-CoV-2 B.1.1.7).
Assay [2] has as its target SARS-CoV-2 B.1.351假病毒的S蛋白 (SARS-CoV-2 B.1.351).
In assay [3] the target is SARS-CoV-2 B.1.617假病毒的S蛋白 (SARS-CoV-2 B.1.617).

B1: 单抗5G2 (antibody)
heavy: EVLLQQSGPELVKPGASVKIPCKASGYTFTDYNMDWVKQSHGKSLEWIGDINPNSGFIIYNQKFKGKASLTVDKSSSTAYMELRSLTSEDTAVYYCAREGYGNNFDYWGQGTTLSVSSAKTTPPSVYPLAPGCGDTTGSSVTLGCLVKGYFPESVTVTWNSGSLSSSVHTFPALLQSGLYTMSSSVTVPSSTWPSQTVTCSVAHPASSTTVDKKLEPSGPISTINPCPPCKECHKCPAPNLEGGPSVFIFPPNIKDVLMISLTPKVTCVVVDVSEDDPDVQISWFVNNVEVHTAQTQTHREDYNSTIRVVSTLPIQHQDWMSGKEFKCKVNNKDLPSPIERTISKIKGLVRAPQVYILPPPAEQLSRKDVSLTCLVVGFNPGDISVEWTSNGHTEENYKDTAPVLDSDGSYFIYSKLNMKTSKWEKTDSFSCNVRHEGLKNYYLKKTISRSPGK
light: DILLTQSPTILSVSPGERVSFSCRASQSIGTSIHWYQQRTKGSPRLLIKYASESISGIPSRFSGSGSGTDFTLSINSVESEDIGDYYCQQSYSWPTTFGAGTKLELK
notes: also called 抗体5G2
As for B1, the “半数抑制浓度(IC50), 假病毒中和试验” value in assay [1] was 0.482 µg/mL; in assay [2] it was 0.367 µg/mL; in assay [3] it was 0.103 µg/mL.

B2: 单抗3H3 (antibody, V domains shown)
VH: QVQLQQPGAELVRPGASVKLSCKASGYSFTRFWMNWVKQRPGQGLEWIGMIHPSDSETRLNQKFKDKATLTVDKSSTTAYMQLSSPTSEDSAVYYCARKDYDYDAWFAYWGQGTLVTVSA
VL: DIVLTQSPASLAVSLGQRATISCRASKSVSASVYSYMHWYQQKPGQPPKLLIYLASSLESGVPARFSGSGSGTDFTLNIHPVEEEDAATYYCHHSRELPPAFGGGTKLEIKR
notes: also called 抗体3H3
As to B2, the “中和IC50, 假病毒中和试验” value in assay [1] amounted to 0.191 µg/mL; in assay [2], 0.107 µg/mL; in assay [3], 0.098 µg/mL.
